Measured values: patent US8323941B2, “Histone demethylation mediated by the nuclear amine oxidase homolog LSD1” (President and Fellows of Harvard College, priority 2004, dated 2012)

B1: del 1: CoREST deletion mutant aa 1-293 (protein)
chain: MVEKGPEVSGKRRGRNNAAASASAAAASAAASAACASPAATAASGAAASSASAAAASAAAAPNNGQNKSLAAAAPNGNSSSNSWEEGSSGSSSDEEHGGGGMRVGPQYQAVVPDFDPAKLARRSQERDNLGMLVWSPNQNLSEAKLDEYIAIAKEKHGYNMEQALGMLFWHKHNIEKSLADLPNFTPFPDEWTVEDKVLFEQAFSFHGKTFHRIQQMLPDKSIASLVKFYYSWKKTRTKTSVMDRHARKQKREREESEDELEEANGNNPIDIEVDQNKESKKEVPPTETVPQV
modifications: left off: small tags and cut ends
B2: del 4: CoREST deletion mutant aa 105-293 (protein)
chain: GPQYQAVVPDFDPAKLARRSQERDNLGMLVWSPNQNLSEAKLDEYIAIAKEKHGYNMEQALGMLFWHKHNIEKSLADLPNFTPFPDEWTVEDKVLFEQAFSFHGKTFHRIQQMLPDKSIASLVKFYYSWKKTRTKTSVMDRHARKQKREREESEDELEEANGNNPIDIEVDQNKESKKEVPPTETVPQV
modifications: left off: small tags and cut ends

Legend:
[1] = target: T1, LSD1 (Homo sapiens, UniProt O60341); experiment: LSD1 demethylation assay on nucleosomal substrates (mononucleosomes), Western blotting; type: biochemical; conditions: CoREST deletion mutant
T1 construct: Full length (1-851aa) and C-terminal deleted (1-427 aa) human LSD1 cDNAs; 6xHis (N); made in house; host or cells: bacteria
Method: Preparation of mononucleosome. Mononucleosome was made according to a standard protocol (Tagami et al., 2004; Utley et al., 1996). Briefly, nuclear pellet from both TSA-treated or non-treated HeLa cells was homogenized for 60 times with type A pestle to obtain oligo-nucleosomes. The oligo-nucleosomes were then digested with micrococcal nuclease (40 units/mL) for 10 mins at 30° C. The nuclease is inactivated by 5 mM EDTA. Digested materials were spun at 14000 rpm for 3 mins. Resulting supernatant was spun again for additional 3 mins at the same speed. Supernatant from the second spin was subject to 10-25% glycerol gradient sedimentation. The monocleosome-containing fractions were identified by examining aliquots of fractions (treated with proteinase K) on DNA agarose gel. An aliquot of TSA-treated or non TSA-treated mononucleosome, a kind gift from Dr. Yoshihiro Nakatani's Lab in Dana Faber Cancer Institute, Harvard Medical School (Tagami et al., 2004), was used here as a control for the quality of mononucleosome made in our lab.
Demethylation assay. LSD1 demethylation activity on free histone or nucleosomal histone was carried out as previously reported (Shi et al., 2004). […] The demethylase activity of LSD1 under various conditions was evaluated by Western blotting using K4-H3 methylation-specific antibodies.

[2] = target: T2, GST-LSD1 (Homo sapiens, UniProt O60341); experiment: GST pulldown of HIS-tagged CoREST and mutants; type: binding; conditions: Coomassie Blue staining
T2 construct: made in house; host or cells: bacteria (inferred from 'similar procedure' to the His-tagged proteins)
Method: To identify domains of CoREST that are involved in physical interactions with LSD1, GST-LSD1 or GST was incubated with bacterially purified, HIS-tagged CoREST and its mutant derivatives. […] This places the putative LSD1-binding domain within the C-terminal functional domain of CoREST, somewhere between aa 293-381 of CoREST. […] We therefore speculate that the SANT2 domain may be involved in mediate binding to the nucleosomal substrate. Taken together, these findings are consistent with the idea that CoREST functions as a bridging protein. The weak stimulatory activity of the N-terminal CoREST (del1, aa 1-293) remains unclear at the present time.
GST and GSTLSD1 plamsids were kind gifts from Dr. Tadashi Baba's Lab in Japan (Iwase et al., 2004). Expression and purification of GST and GSTLSD1 proteins were done using similar procedure as outlined for purification of his-tagged recombinant proteins. For GST-bead pulldown experiment, 2 μg of each purified his-tagged wt or del CoREST proteins were incubated with 5 μg of bound GST and GSTLSD1 proteins at 4° C. for 4 hrs in a binding buffer (50 mM Tris, pH 8.0, 300 mM NaCl, 1 mM DTT, 0.5 mM EDTA and 0.1% NP-40). The beads were washed 3 times in the binding buffer, resuspended in 2×SDS protein sample buffer, boiled for 5 mins and loaded onto 15% SDS PAGE gel. The gel was then stained with Coomassie Blue.

Molecule | stimulatory activity on LSD1 demethylation [1] | binding to LSD1 [2]
B1 | ~30 % of the wildtype CoREST activity | did not
B2 |  | did not
